Laboratory results from US20090156489A1 (Genentech, published 2009).

Legend:
[1] = molecular target: T1, DCC expressed on COS cells (human, UniProt P43146 26-1447); test: cell surface binding assay on transfected COS7 cells, fluorescence microscopy (data not shown)
T1 construct: whole, on cells
Description: (§1) The resultant fusion proteins were expressed and used in binding assays over a panel of ˜400 putative cell surface transmembrane or GPI-anchored cell surface human proteins that were transiently expressed in COS7 cells. Purified ECD-Fc fusion proteins (0.5 μg/ml) or the crude baculovirus lysates were added to transiently transfected COS7 cells for 1-2 hours at room temperature. After 3 rinses with cold phosphate buffered saline (PBS), the bound protein was cross-linked to the cell surface with 4% paraformaldehyde. The bound Fc fusion protein was detected by biotinylated anti-human IgGFc and R-phycoerythrin-conjugated streptavidin (Jackson Immunoresearch). Cell surface staining was visualized by fluorescent microscopy and images were taken with the Penguin 800CL digital camera system (Pixera).
(§2) Although the NGL-1 and Netrin-G1 interaction appeared to be specific within the context of the screen, the classical Netrins and their known receptors, DCC and Unc5, were not included in the screen. Thus whether NGL-1 also interacts with Netrin-1 and its receptors was determined. Using the same cell surface binding assay, NGL-1, Netrin-G1, or Netrin-1 were expressed in COS7 cells (rows in FIG. 1a-i) and their ability to bind the IgG Fe fusion protein of NGL-1, Netrin-G1, or DCC (columns in FIG. 1a-i) was determined. […]

[2] = molecular target: chicken Netrin-1 expressed in COS7 cells (chicken, UniProt Q90922 26-606); test: cell surface binding assay on transfected COS7 cells, fluorescence microscopy
Description: as §1, §2

T1 sequence (P43146 26-1447): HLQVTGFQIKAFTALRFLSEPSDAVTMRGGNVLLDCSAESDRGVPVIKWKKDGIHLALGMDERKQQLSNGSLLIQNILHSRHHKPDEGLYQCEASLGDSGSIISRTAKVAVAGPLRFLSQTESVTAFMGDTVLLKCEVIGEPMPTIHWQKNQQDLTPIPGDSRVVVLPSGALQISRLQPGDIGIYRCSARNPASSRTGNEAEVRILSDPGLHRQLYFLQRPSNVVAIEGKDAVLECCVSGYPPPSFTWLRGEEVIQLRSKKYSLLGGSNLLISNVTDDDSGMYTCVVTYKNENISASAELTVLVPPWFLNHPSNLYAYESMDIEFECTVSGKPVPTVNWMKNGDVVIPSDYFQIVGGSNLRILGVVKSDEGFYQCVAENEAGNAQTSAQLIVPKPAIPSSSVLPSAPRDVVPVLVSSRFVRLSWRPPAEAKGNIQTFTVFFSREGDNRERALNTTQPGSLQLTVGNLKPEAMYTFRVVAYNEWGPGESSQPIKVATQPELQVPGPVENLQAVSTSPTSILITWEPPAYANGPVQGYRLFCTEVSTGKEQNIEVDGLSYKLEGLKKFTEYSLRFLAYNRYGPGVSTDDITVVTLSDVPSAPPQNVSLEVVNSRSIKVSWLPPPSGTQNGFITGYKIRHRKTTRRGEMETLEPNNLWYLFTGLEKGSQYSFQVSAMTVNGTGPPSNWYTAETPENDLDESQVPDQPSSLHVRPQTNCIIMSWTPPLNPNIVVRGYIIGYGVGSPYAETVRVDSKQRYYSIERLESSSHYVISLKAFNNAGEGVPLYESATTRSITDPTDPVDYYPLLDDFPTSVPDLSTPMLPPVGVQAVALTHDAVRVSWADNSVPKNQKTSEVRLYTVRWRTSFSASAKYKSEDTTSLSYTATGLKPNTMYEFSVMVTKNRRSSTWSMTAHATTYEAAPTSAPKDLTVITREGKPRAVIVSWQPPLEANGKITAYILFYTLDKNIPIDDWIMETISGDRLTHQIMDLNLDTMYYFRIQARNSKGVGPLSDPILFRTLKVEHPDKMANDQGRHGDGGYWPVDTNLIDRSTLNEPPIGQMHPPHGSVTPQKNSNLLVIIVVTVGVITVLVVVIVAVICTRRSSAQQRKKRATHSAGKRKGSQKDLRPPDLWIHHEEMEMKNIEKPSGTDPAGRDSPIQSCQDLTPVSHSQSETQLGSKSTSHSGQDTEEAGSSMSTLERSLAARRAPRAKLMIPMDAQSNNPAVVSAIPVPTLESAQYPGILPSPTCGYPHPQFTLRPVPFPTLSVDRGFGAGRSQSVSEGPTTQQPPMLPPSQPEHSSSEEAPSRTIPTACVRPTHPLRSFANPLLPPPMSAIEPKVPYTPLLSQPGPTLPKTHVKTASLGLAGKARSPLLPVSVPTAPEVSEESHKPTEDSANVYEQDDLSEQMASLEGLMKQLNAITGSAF

B1: human Netrin-G1-Fc (Fc fusion, UniProt Q9Y2I2-1 29-409, looked up)
chain: HYDLCKTQIYTEEGKVWDYMACQPESTDMTKYLKVKLDPPDITCGDPPETFCAMGNPYMCNNECDASTPELAHPPELMFDFEGRHPSTFWQSATWKEYPKPLQVNITLSWSKTIELTDNIVITFESGRPDQMILEKSLDYGRTWQPYQYYATDCLDAFHMDPKSVKDLSQHTVLEIICTEEYSTGYTTNSKIIHFEIKDRFAFFAGPRLRNMASLYGQLDTTKKLRDFFTVTDLRIRLLRPAVGEIFVDELHLARYFYAISDIKVRGRCKCNLHATVCVYDNSKLTCECEHNTTGPDCGKCKKNYQGRPWSPGSYLPIPKGTANTCIPSISSIGTNVCDNELLHCQNGGTCHNNVRCLCPAAYTGILCEKLRCEEAGSCGS
notes: extracellular domain; also called Netrin-G1-Fc fusion protein; not shown: human IgG1 Fc region
binding result [1]: no binding | binding result [2]: no binding
